* marks the point of attachment. Palmitoyl = CCCCCCCCCCCCCCCC(=O)*

For data set [1], the target named is T1, PTHR1 (Rattus norvegicus, UniProt P25961).
T1 sequence (P25961 27-591): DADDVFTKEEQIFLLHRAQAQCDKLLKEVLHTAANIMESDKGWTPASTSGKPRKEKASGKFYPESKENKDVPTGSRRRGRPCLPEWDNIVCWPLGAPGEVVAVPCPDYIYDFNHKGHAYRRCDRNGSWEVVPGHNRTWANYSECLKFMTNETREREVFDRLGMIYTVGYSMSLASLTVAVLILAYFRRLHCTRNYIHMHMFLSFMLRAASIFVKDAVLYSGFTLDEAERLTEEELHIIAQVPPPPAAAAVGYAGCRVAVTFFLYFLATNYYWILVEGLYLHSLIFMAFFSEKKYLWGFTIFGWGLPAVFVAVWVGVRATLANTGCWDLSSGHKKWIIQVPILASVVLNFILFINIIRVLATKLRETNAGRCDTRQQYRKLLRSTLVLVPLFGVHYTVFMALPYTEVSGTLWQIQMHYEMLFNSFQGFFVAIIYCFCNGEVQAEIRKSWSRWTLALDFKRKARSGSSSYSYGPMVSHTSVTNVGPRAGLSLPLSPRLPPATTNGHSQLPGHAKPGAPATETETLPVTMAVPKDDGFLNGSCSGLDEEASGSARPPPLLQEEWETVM
Experimental: (§1) cAMP Screening Assay Using DiscoveRX XS+ Kit
(§2) UMR-106 cells were seeded in 96-well white plates at 10K cells/well in growth media. Twenty four hours after seeding, cell media was removed by gentle dumping and replaced with 30 μL of compounds diluted to 10 μM final concentration in assay buffer (Hank's balanced Salt Solution, 20 mM HEPES, pH 7.4, 0.1 μM IBMX). After 30 minute incubation at room temperature, 10 μL human PTH1-34 serial diluted in assay buffer was added. Cells were incubated at 37° C. for 15 minutes before 10 μL of water soluble analog of forskolin, NKH477 was added to final concentration of 10 μM followed by 60 minute incubation at room temperature. DiscoveRX cAMP XS+ kit reagents were then added following manufacture protocol. Briefly, 10 μL of antibody was added to each well followed by 40 μL of ED/Lysis buffer mix (1/5/19 for Galacon-star/Emerald/Lysis buffer and then 1:1 with ED). After 1 hour incubation, 40 μL of EA reagent was added followed by at least 1 hour incubation before the plates were read on TopCount reader. Data was analyzed using GraphPad Prism. PTH1-34 dose-response curves were fitted using non-linear curve fit (Y=Bottom+(Top−Bottom)/(1+10̂((Log EC50−X)*HillSlope))). PTH1-34 EC50 values calculated in the presence of compounds were compared to that in the presence of vehicle control. The ratio of the EC50 values were calculated and presented as fold shift (EC50 compound/EC50 vehicle). The effect of compounds on PTH1-34 stimulated maximal response was also assessed and was presented percent inhibition (1−(Emax compound/Emax vehicle)).

The target of data set [2] is T1, PTHR1. Kind of data set: cAMP screening assay using DiscoveRX XS+ kit (PTH1-34 dose-response in UMR-106 cells). Particulars: compound 10 μM, PTH1-34 stimulated maximal response, 1−(Emax compound/Emax vehicle).
Experimental: as §1, §2

Regarding RQQYRKLLKSTL [Compound 57], the “Fold Shift of EC50” value in data set [1] is 15.6. For the same substance, in data set [2], the “Inhibition of Maximal Response” value is reported as −38.80%.
In the case of GSEKKYLWGFT [Compound 42], the “Fold Shift of EC50” value in data set [1] is 1.3. The “Inhibition of Maximal Response” value in data set [2] is on record as 40.80%.
In the same order, the values of NIVRVLATKLRE [Compound 55] are 0.6 and 26.10%.
The matching figures for TNAGRADTRQQYRKLL [Compound 77]: 6.9 and 9.90%.
In the case of YLHSLIFMAFFSEKKYLWGFT [Compound 35], the “Fold Shift of EC50” value in data set [1] stood at 1.1. For the same substance, in data set [2], the “Inhibition of Maximal Response” value came to 24.50%.
In the same order, the values of RVLATKLRETNAGR [Compound 75] are 1.1 and 12.60%.
The matching figures for AGRSDTRQQYRKLLFA [Compound 94]: 18.7 and −24.40%.
The matching figures for TNAGRSDTRQQYRKLA [Compound 88]: 2.8 and −25.00%.
As to TNAGRSDTRQQYRF [Compound 70], the “Fold Shift of EC50” value in data set [1] was 2. Further, the “Inhibition of Maximal Response” value in data set [2] is listed as 15.10%.
Take RETNAGRSDTRQQYRF [Compound 61]: the “Fold Shift of EC50” value in data set [1] was 0.7. Moreover, the “Inhibition of Maximal Response” value in data set [2] is −47.60%.
The matching figures for “Pal-GSEKKYLWGFTVF-amide (Palmitoyl-GSEKKYLWGFTVF-NH2; SMILES CCCCCCCCCCCCCCCC(=O)NCC(=O)N[C@@H](CO)C(=O)N[C@@H](CCC(=O)O)C(=O)N[C@@H](CCCCN)C(=O)N[C@@H](CCCCN)C(=O)N[C@@H](Cc1ccc(O)cc1)C(=O)N[C@@H](CC(C)C)C(=O)N[C@@H](Cc1c[nH]c2ccccc12)C(=O)NCC(=O)N[C@@H](Cc1ccccc1)C(=O)N[C@H](C(=O)N[C@H](C(=O)N[C@@H](Cc1ccccc1)C(N)=O)C(C)C)[C@@H](C)O) [Compound 41]”: 0.9 and 17.70%.
Consider KKSWSRWTLALDFKRKAR [Compound 97], for which, in data set [1], the “Fold Shift of EC50” value was 4.7. The “Inhibition of Maximal Response” value in data set [2] is 37.20%.
The matching figures for LAYFRRLHSTR [Compound 4]: 0.9 and −74.20%.
Turning to RRLHSTRNYIHM [Compound 15], the “Fold Shift of EC50” value in data set [1] came out at 1.7. The “Inhibition of Maximal Response” value in data set [2] is 1.50%.
Turning to TNAGRSDTRQQYRKLLA [Compound 87], the “Fold Shift of EC50” value in data set [1] came to 4.1. The “Inhibition of Maximal Response” value in data set [2] was 8.00%.
The matching figures for SGRVLATKLRETNAGR [Compound 74]: 1.9 and 22.20%.
For KLRETNAGRSDTRQQY [Compound 53], the “Fold Shift of EC50” value in data set [1] was 2.1. The “Inhibition of Maximal Response” value in data set [2] turned out to be 6.40%.
In the same order, the values of AYFRRLHSTRNYIH [Compound 7] are 1.2 and 36.00%.
As to NIVRVLATKLRETNAGR [Compound 54], the “Fold Shift of EC50” value in data set [1] is recorded as 0.7. In addition, in data set [2], the “Inhibition of Maximal Response” value amounted to 17.50%.
In the same order, the values of KLRETNAGRSDTRQQRKLL [Compound 47] are 2.7 and 8.30%.

The values are drawn from patent US20110294738A1, “PTHR1 RECEPTOR COMPOUNDS” (priority 2008, published 2011).
